This passage reports EC50 and Kd results from patent publication US20220306729A1 (published 2022).

The target of experiment [1] is ZIKV envelope domain III (ZEDIII), polyhistidine-AviTag, made in HEK-293-6E cells. The experiment is described as follows: ELISA. (An ELISA detects its analyte on a solid surface through an enzyme-linked reagent.)
A further experiment concerns the target Human FcRn. The experiment is described as follows: SPR. On the technique in general: Surface plasmon resonance follows binding to a sensor surface in real time, without labels.

B1: Z012 (antibody, V domains shown)
VH: QVQLVQSGAEVKKSGASVKVSCKASGYSFTTNYIHWVRQAPGQGPEWMGIINPRGGSTTYAQKFQGRVLMTSDTSTSTVYMELSSLRSEDRAVYYCARGKNHQTTVAVLSWYYGMDVWGQGTTVTVSS
VL: DIQMTQSPSSVSASVGDRVTITCRASQGISSWLAWYQQKPGKAPKLLISAASSLQSGVPSRFSGSGSGTDFTLTISNLQPEDFATYFCQQANSFPYTFGQGTKLEIK
For B1, the 50% effective concentration (EC50) (in general, the midpoint of the concentration-response curve) in experiment [1] came out at 0.2 µg/mL.

B2: GRLR/LS (antibody)
heavy: EVQLLESGGGLVQPGGSLRLTCATSGFTFRDYAMSWVRQAPGKGLEWVSSYSGIDDSTYYADSVKGRFTISRDNSKSTLSLHMNSLRAEDSALYFCAKDRGPRGVGELFDSWGQGTLVTVSSASTKGPSVFPLAPSSKSTSGGTAALGCLVKDYFPEPVTVSWNSGALTSGVHTFPAVLQSSGLYSLSSVVTVPSSSLGTQTYICNVNHKPSNTKVDKRVEPKSCDKTHTCPPCPAPELLRGPSVFLFPPKPKDTLMISRTPEVTCVVVDVSHEDPEVKFNWYVDGVEVHNAKTKPREEQYNSTYRVVSVLTVLHQDWLNGKEYKCKVSNKARPAPIEKTISKAKGQPREPQVYTLPPSREEMTKNQVSLTCLVKGFYPSDIAVEWESNGQPENNYKTTPPVLDSDGSFFLYSKLTVDKSRWQQGNVFSCSVLHEALHSHYTQKSLSLSPG
light: DIQMTQSPSTLSASVGDRVTITCRASQSISKWLAWYQQKPGKAPKLLIYTTSTLKSGVPSRFSGSGSGTEFTLTISSLQPDDFATYYCQHFYSVPWTFGQGTKVEIKRTVAAPSVFIFPPSDEQLKSGTASVVCLLNNFYPREAKVQWKVDNALQSGNSQESVTEQDSKDSTYSLSSTLTLSKADYEKHKVYACEVTHQGLSSPVTKSFNRGEC
For the molecule B2, the Kd (commonly the equilibrium constant for the complex coming apart) with Human FcRn stood at 5.2 nM.

B3: Z010 (MEX105_88) (antibody, V domains shown)
VH: EVQLLESGGGLVQPGGSLRLSCAASGFTFSNYAMAWVRQAPGKGLEWVSLIYSGDDSTYYADFVKGRFTISRHNSKNTLSLQMNSLRAEDTAIYYCVKDRGTGWSSIVHWGQGTLVTVSS
VL: DIQMTQSPSTLSASVGDRVTITCRASQTISNWLAWYQQKPGKAPKLLIYQASSLESGVPSRFSGSGSGTEFTLTISSLQPDDFATYYCQQYSTYWTFGQGTKVEIK
In turn, B3 yielded a 50% effective concentration (EC50) in experiment [1] of over 0.4 µg/mL.

B4: Z037 (antibody, V domains shown)
VH: QVQLQESGPGLVKPSETLSLTCSVSGYFISSGHYWGWIRQSPGKGLEWIASIYQSGSKFQTGNTYYNPSLESRVTISMDTSKNQFSLKLSSVTAADTAVYFCARDARSRSWDRTGFFGPWGQGILVTVSS
VL: EIVLTQSPGTLSLSPGERATLSCRASQSLSSSFLAWYQQKPGQSPRLLIYGTSSRDTGIPDRFSGSGSGTDFTLTISRLEPEDSAVYYCQQYGSSWGTFGQGTKLEIK
For the molecule B4, in experiment [1], the concentration for a half-maximal effect (EC50) is over 0.4 µg/mL.
